The values that follow come from publication PMC5612953, “Stable MOB1 interaction with Hippo/MST is not essential for development and tissue growth control” (Nature Communications, 2017).

Numbering of substitutions follows the chain as printed. Names may count otherwise.

Sequences and labels used below:
T1: unphosphorylated full-length MOB1A(K104E/K105E), recombinant (human, UniProt Q9H8S9 1-216, K104E | K105E)
T1 construct: human MOB1A, full length; also called Unphosphorylated MOB1(K104E/K105E); MOB1(K104E/K104E); source: E. coli, purified as MOB1A (33-216) (Ni-NTA)
T1 sequence (looked up): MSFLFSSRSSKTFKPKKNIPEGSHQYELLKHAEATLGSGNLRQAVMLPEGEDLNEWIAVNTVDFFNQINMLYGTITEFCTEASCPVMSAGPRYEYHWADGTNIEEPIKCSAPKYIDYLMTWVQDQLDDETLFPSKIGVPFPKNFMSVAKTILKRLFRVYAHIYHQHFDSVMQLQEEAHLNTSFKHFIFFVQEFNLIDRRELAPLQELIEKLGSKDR

T2: non-phosphorylated full-length MOB1A wild-type (human, UniProt Q9H8S9 1-216)
T2 construct: human MOB1A, full length; pET28a vector; also called unphosphorylated full-length MOB1; non-phosphorylated MOB1; source: E. coli, purified as MOB1A (33-216) (Ni-NTA)
T2 sequence (looked up): T1 sequence (looked up) with E104K, E105K

T3: phospho-MOB1(K104E/K105E), full length, recombinant (human, UniProt Q9H8S9 1-216, K104E | K105E, phosphorylated in vitro by MST2 (residues 2-308); the paper names Thr12 and Thr35 as the MST1/2 phosphorylation sites of MOB1)
T3 construct: human MOB1A, full length; source: E. coli, purified (Ni-NTA), then phosphorylated in vitro by MST2 (2-308)
T3 sequence (looked up): T1 sequence (looked up)

T4: human MOB1A (residues 33-216) (human, UniProt Q9H8S9 33-216)
T4 construct: human MOB1A, residues 33-216; modified pET28a vector; a zinc is associated with MOB1 in the structure; also called MOB1 (33-216); MOB1A (33-216); source: E. coli BL21(DE3), purified (Ni-NTA; complex by Superdex 200)
T4 sequence (looked up): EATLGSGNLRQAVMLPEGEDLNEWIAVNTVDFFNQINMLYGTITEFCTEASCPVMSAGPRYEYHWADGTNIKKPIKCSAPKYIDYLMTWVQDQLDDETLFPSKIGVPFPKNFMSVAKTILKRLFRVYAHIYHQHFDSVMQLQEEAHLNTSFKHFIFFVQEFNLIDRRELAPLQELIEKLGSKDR

T5: phospho-MOB1(K104E/K105E), full length, recombinant (human, UniProt Q9H8S9 1-216, K104E | K105E, phosphorylated in vitro by MST2 (residues 2-308); the paper names Thr12 and Thr35 as the MST1/2 phosphorylation sites of MOB1)
T5 sequence: T1 sequence (looked up)

T6: unphosphorylated full-length MOB1A(K104E/K105E), recombinant (human, UniProt Q9H8S9 1-216, K104E | K105E)
T6 sequence: T1 sequence (looked up)

T7: human MST2 (residues 2-392) (human, UniProt Q13188 2-392)
T7 construct: human MST2, residues 2-392; also called MST2 (2-392); source: E. coli BL21(DE3), purified (Ni-NTA)
T7 sequence (looked up): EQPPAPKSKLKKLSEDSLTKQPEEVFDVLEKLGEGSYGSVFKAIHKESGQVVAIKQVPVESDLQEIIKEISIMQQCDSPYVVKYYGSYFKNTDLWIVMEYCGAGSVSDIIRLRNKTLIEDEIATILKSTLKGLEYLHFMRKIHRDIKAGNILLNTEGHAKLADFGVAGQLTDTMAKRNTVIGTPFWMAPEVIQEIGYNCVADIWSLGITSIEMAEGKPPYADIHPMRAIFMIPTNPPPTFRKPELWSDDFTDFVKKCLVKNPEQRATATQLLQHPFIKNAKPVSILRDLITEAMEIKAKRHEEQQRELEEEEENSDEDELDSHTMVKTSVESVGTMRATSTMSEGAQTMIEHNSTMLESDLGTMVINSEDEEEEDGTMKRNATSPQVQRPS

B1: human NDR2 (residues 25-88), N-terminal regulatory domain (NTR) (domain or fragment, UniProt Q9Y2H1 25-88, looked up)
chain: KLTLENFYSNLILQHEERETRQKKLEVAMEEEGLADEEKKLRRSQHARKETEFLRLKRTRLGLD
notes: human NDR2, residues 25-88 (NTR); also called NDR2 (25-88); NTR of NDR2; source: E. coli BL21(DE3), purified (Ni-NTA)
B2: human LATS1 (residues 618-697) (domain or fragment, UniProt O95835 618-697, looked up)
chain: RKNKKDEERRESRIQSYSPQAFKFFMEQHVENVLKSHQQRLHRKKQLENEMMRVGLSQDAQDQMRKMLCQKESNYIRLKR
notes: human LATS1, residues 618-697; also called LATS1 (618-697); source: E. coli BL21(DE3), purified (Ni-NTA)
B3: recombinant full-length MOB1A(D63V) (natural protein, human, UniProt Q9H8S9 1-216, looked up)
chain: T1 sequence (looked up) with D63V, E104K, E105K
notes: human MOB1A, full length; also called MOB1(D63V); source: E. coli, purified as MOB1A (33-216) (Ni-NTA)

The target in assay [1] is T1, unphosphorylated full-length …. Briefly: ITC; 25 °C, ITC200; 25 mM HEPES pH 7.5, 200 mM NaCl, 1 mM EDTA; ~240 μM MOB1A injected (20 x 2 μl) into ~24 μM NDR1, NDR2, LATS1 or LATS2 fragment in the cell; single-site model. The settings on record: both partners purified. Background: Isothermal titration calorimetry measures the heat released or taken up as one component is titrated into another.

Assay [2] addresses T2, non-phosphorylated full-length MOB1A …. Described as above. Particulars: both partners purified.
The target of assay [3] is T3, phospho-MOB1(K104E/K105E), full length, …. Described as above. Particulars: both partners purified.
The target in assay [4] is T4, human MOB1A (residues 33-216). Briefly: crystal structure; MOB1A (33-216) and NDR2 (25-88) incubated 1:1 at 4 °C, complex purified on Superdex 200; crystals at 14 °C in 17% PEG 3350, 0.1 M HEPES pH 7.5, 150 mM magnesium chloride; 2.10 Å. Particulars: both partners purified.
In assay [5] the target is T5, phospho-MOB1(K104E/K105E), full length, …. Briefly: ITC; phosphorylated MOB1.
Assay [6] deals with T6, unphosphorylated full-length …. Briefly: ITC.
Assay [7] addresses B3. Briefly: SEC; purified full-length MOB1 proteins incubated with NDR2 (25-88), LATS1 (618-697) or MST2 (2-392) at 4 °C for 20 min in assembly buffer (20 mM Tris pH 8.0, 200 mM NaCl, 5 mM DTT); HiLoad 16/60 Superdex 200; fractions by SDS-PAGE and Coomassie; for LATS1 MOB1A was first phosphorylated by MST2 (2-308). The settings on record: both partners purified. For orientation: In gel filtration, larger molecules generally elute earlier.

The target in assay [8] is T3, phospho-MOB1(K104E/K105E), full length, …. The assay is described as above. The settings on record: both partners purified.
Assay [9] concerns the target T7, human MST2 (residues 2-392). The description is as above. The settings on record: both partners purified.

For the molecule B1, the binding result in [1], in assay [2], in assay [3], in assay [4] and in assay [7] was “binds” in each case. In addition, the figures for the Kd in assay [5] and in assay [6] were 0.532 µM and 16.9 µM, respectively.

As to B2, the binding result in assay [8] is recorded as “binds”.

Consider B3, for which the binding result in assay [9] is “binds”.

One may read the Kd as the free concentration of one partner at which half of the binding sites on the other are occupied at equilibrium, for simple one-to-one binding.
